From patent US20120316071A1 (published 2012)

What was measured:
[1] = target: T1, Recombinant Human DLL4 (R&D Systems Cat#1506-D4/CF) (human, UniProt Q9NR61 27-524); test: ECL multispot (MSD) binding assay, DLL4 spotted on plate, purified Fab in solution; Fab concentration not given
T1 construct: Bought recombinant protein; also called delta-like protein 4; rHuman DLL4

[2] = target: T1, Recombinant Human DLL4 (R&D Systems …); test: ECL multispot (MSD) binding assay, DLL4 signal over blank spot; Fab concentration not given
[3] = target: T2, Recombinant Human DLL4 (delta-like protein 4) (human, UniProt Q9NR61 27-524); test: ELISA on plate-coated DLL4, 100 nM Fab
T2 construct: Bought recombinant protein (R&D Systems Cat#1506-D4/CF); also called rHuman DLL4

[4] = target: T2, Recombinant Human DLL4 (delta-like …); test: ECL 96-well plate assay on immobilised DLL4, 10 nM Fab

Binder	ECL signal [1]	Signal/Blank [2]	ELISA signal [3]	ECL signal [4]
Fab VH1-46_IGHD6-6*01_IGHJ1*01 S102A/S103P/S104F/H111F (APFF) & L6_IGKJ1*01 S28L (Fab, V domains shown, Fab expressed in E. coli: VH joined to CH1 (Plasmid A, His6 and Flag tags), VL joined to kappa CL (Plasmid C); also called APFF S28L) VH: QVQLVQSGAEVKKPGASVKVSCKASGYTFTSYYMHWVRQAPGQGLEWMGIINPSGGSTSYAQKFQGRVTMTRDTSTSTVYMELSSLRSEDTAVYYCAREEYAPFSAEYFQFWGQGTLVTVSS VL: EIVLTQSPATLSLSPGERATLSCRASQLVSSYLAWYQQKPGQAPRLLIYDASNRATGIPARFSGSGSGTDFTLTISSLEPEDFAVYYCQQRSNWPPWTFGQGTKVEIKR	72300	220		
Fab VH1-46_IGHD6-6*01_IGHJ1*01 S102A/S103P/S104F/H111F (APFF) & L6_IGKJ1*01 S28R (Fab, V domains shown, Fab expressed in E. coli: VH joined to CH1 (Plasmid A, His6 and Flag tags), VL joined to kappa CL (Plasmid C); also called APFF S28R) VH: QVQLVQSGAEVKKPGASVKVSCKASGYTFTSYYMHWVRQAPGQGLEWMGIINPSGGSTSYAQKFQGRVTMTRDTSTSTVYMELSSLRSEDTAVYYCAREEYAPFSAEYFQFWGQGTLVTVSS VL: EIVLTQSPATLSLSPGERATLSCRASQRVSSYLAWYQQKPGQAPRLLIYDASNRATGIPARFSGSGSGTDFTLTISSLEPEDFAVYYCQQRSNWPPWTFGQGTKVEIKR	110000	246		
Fab VH1-46_IGHD6-6*01_IGHJ1*01 S102A/S103P/S104F/H111F (APFF) & L6_IGKJ1*01 S28P (Fab, V domains shown, Fab expressed in E. coli: VH joined to CH1 (Plasmid A, His6 and Flag tags), VL joined to kappa CL (Plasmid C); also called APFF S28P) VH: QVQLVQSGAEVKKPGASVKVSCKASGYTFTSYYMHWVRQAPGQGLEWMGIINPSGGSTSYAQKFQGRVTMTRDTSTSTVYMELSSLRSEDTAVYYCAREEYAPFSAEYFQFWGQGTLVTVSS VL: EIVLTQSPATLSLSPGERATLSCRASQPVSSYLAWYQQKPGQAPRLLIYDASNRATGIPARFSGSGSGTDFTLTISSLEPEDFAVYYCQQRSNWPPWTFGQGTKVEIKR	178000	454		
Fab VH1-46_IGHD6-6*01_IGHJ1*01 S102A/S103P/S104F/H111F (APFF) & L6_IGKJ1*01 S28I (Fab, V domains shown, Fab expressed in E. coli: VH joined to CH1 (Plasmid A, His6 and Flag tags), VL joined to kappa CL (Plasmid C); also called APFF S28I) VH: QVQLVQSGAEVKKPGASVKVSCKASGYTFTSYYMHWVRQAPGQGLEWMGIINPSGGSTSYAQKFQGRVTMTRDTSTSTVYMELSSLRSEDTAVYYCAREEYAPFSAEYFQFWGQGTLVTVSS VL: EIVLTQSPATLSLSPGERATLSCRASQIVSSYLAWYQQKPGQAPRLLIYDASNRATGIPARFSGSGSGTDFTLTISSLEPEDFAVYYCQQRSNWPPWTFGQGTKVEIKR	106000	309		
Fab VH1-46_IGHD6-6*01_IGHJ1*01 S102A/S103P/S104F/H111F (APFF) & L6_IGKJ1*01 S28E (Fab, V domains shown, Fab expressed in E. coli: VH joined to CH1 (Plasmid A, His6 and Flag tags), VL joined to kappa CL (Plasmid C); also called APFF S28E) VH: QVQLVQSGAEVKKPGASVKVSCKASGYTFTSYYMHWVRQAPGQGLEWMGIINPSGGSTSYAQKFQGRVTMTRDTSTSTVYMELSSLRSEDTAVYYCAREEYAPFSAEYFQFWGQGTLVTVSS VL: EIVLTQSPATLSLSPGERATLSCRASQEVSSYLAWYQQKPGQAPRLLIYDASNRATGIPARFSGSGSGTDFTLTISSLEPEDFAVYYCQQRSNWPPWTFGQGTKVEIKR	184000	439		
Fab VH1-46_IGHD6-6*01_IGHJ1*01 S102A/S103P/S104F/H111F (APFF) & L6_IGKJ1*01 S28H (Fab, V domains shown, Fab expressed in E. coli: VH joined to CH1 (Plasmid A, His6 and Flag tags), VL joined to kappa CL (Plasmid C); also called APFF S28H) VH: QVQLVQSGAEVKKPGASVKVSCKASGYTFTSYYMHWVRQAPGQGLEWMGIINPSGGSTSYAQKFQGRVTMTRDTSTSTVYMELSSLRSEDTAVYYCAREEYAPFSAEYFQFWGQGTLVTVSS VL: EIVLTQSPATLSLSPGERATLSCRASQHVSSYLAWYQQKPGQAPRLLIYDASNRATGIPARFSGSGSGTDFTLTISSLEPEDFAVYYCQQRSNWPPWTFGQGTKVEIKR	209000	609		

The remaining lines, values ahead:

ECL signal [1]	Signal/Blank [2]	ELISA signal [3]	ECL signal [4]	Binder
		0.03	18400	Fab VH1-46_IGHD6-6*01_IGHJ1*01 S102A/S103P/S104F/H111F S54I & L6_IGKJ1*01 (Fab, V domains shown, Fab from E. coli; CH1 (with His and Flag tags) and kappa CL come from the expression plasmids; also called APFF S54I) VH: QVQLVQSGAEVKKPGASVKVSCKASGYTFTSYYMHWVRQAPGQGLEWMGIINPIGGSTSYAQKFQGRVTMTRDTSTSTVYMELSSLRSEDTAVYYCAREEYAPFSAEYFQFWGQGTLVTVSS VL: not shown
165000	545			Fab VH1-46_IGHD6-6*01_IGHJ1*01 S102A/S103P/S104F/H111F (APFF) & L6_IGKJ1*01 S28W (Fab, V domains shown, Fab expressed in E. coli: VH joined to CH1 (Plasmid A, His6 and Flag tags), VL joined to kappa CL (Plasmid C); also called APFF S28W) VH: QVQLVQSGAEVKKPGASVKVSCKASGYTFTSYYMHWVRQAPGQGLEWMGIINPSGGSTSYAQKFQGRVTMTRDTSTSTVYMELSSLRSEDTAVYYCAREEYAPFSAEYFQFWGQGTLVTVSS VL: EIVLTQSPATLSLSPGERATLSCRASQWVSSYLAWYQQKPGQAPRLLIYDASNRATGIPARFSGSGSGTDFTLTISSLEPEDFAVYYCQQRSNWPPWTFGQGTKVEIKR
1140	4.4			Fab VH1-46_IGHD6-6*01_IGHJ1*01 S102A/S103P/S104F/H111F (APFF) & L6_IGKJ1*01 S30P (Fab, V domains shown, Fab expressed in E. coli: VH joined to CH1 (Plasmid A, His6 and Flag tags), VL joined to kappa CL (Plasmid C); also called APFF S30P) VH: QVQLVQSGAEVKKPGASVKVSCKASGYTFTSYYMHWVRQAPGQGLEWMGIINPSGGSTSYAQKFQGRVTMTRDTSTSTVYMELSSLRSEDTAVYYCAREEYAPFSAEYFQFWGQGTLVTVSS VL: EIVLTQSPATLSLSPGERATLSCRASQSVPSYLAWYQQKPGQAPRLLIYDASNRATGIPARFSGSGSGTDFTLTISSLEPEDFAVYYCQQRSNWPPWTFGQGTKVEIKR
159000	522			Fab VH1-46_IGHD6-6*01_IGHJ1*01 S102A/S103P/S104F/H111F (APFF) & L6_IGKJ1*01 S28T (Fab, V domains shown, Fab expressed in E. coli: VH joined to CH1 (Plasmid A, His6 and Flag tags), VL joined to kappa CL (Plasmid C); also called APFF S28T) VH: QVQLVQSGAEVKKPGASVKVSCKASGYTFTSYYMHWVRQAPGQGLEWMGIINPSGGSTSYAQKFQGRVTMTRDTSTSTVYMELSSLRSEDTAVYYCAREEYAPFSAEYFQFWGQGTLVTVSS VL: EIVLTQSPATLSLSPGERATLSCRASQTVSSYLAWYQQKPGQAPRLLIYDASNRATGIPARFSGSGSGTDFTLTISSLEPEDFAVYYCQQRSNWPPWTFGQGTKVEIKR
